Assays:
[1] = biological target: HIV-1 93TH057 gp120 coree (HIV-1); experiment: PDB 3ngb structure, PISA interface
[2] = biological target: HIV-1 Env of pseudovirus X2088_c9 (clade G) (HIV-1); experiment: cell-based or functional assay
[3] = biological target: HIV-1 Env of pseudovirus X1254_c3 (clade G) (HIV-1); experiment: cell-based or functional assay
[4] = biological target: HIV-1 Env of pseudovirus R1166.c01 (clade CRF01_AE) (HIV-1); experiment: cell-based or functional assay
[5] = biological target: HIV-1 Env of pseudovirus 3016.v5.c45 (clade D) (HIV-1); experiment: cell-based or functional assay
[6] = biological target: HIV-1 Env of pseudovirus Du422.1 (clade C) (HIV-1); experiment: cell-based or functional assay
[7] = biological target: HIV-1 Env of pseudovirus CAP210.2.00.E8 (clade C) (HIV-1); experiment: cell-based or functional assay
[8] = biological target: HIV-1 Env of pseudovirus 191955_A11 (clade A, T/F) (HIV-1); experiment: cell-based or functional assay
[9] = biological target: HIV-1 Env of pseudovirus 6952.v1.c20 (clade CD) (HIV-1); experiment: cell-based or functional assay
[10] = biological target: HIV-1 Env of pseudovirus AC10.0.29 (clade B) (HIV-1); experiment: cell-based or functional assay
[11] = biological target: HIV-1 Env of pseudovirus 620345.c01 (clade CRF01_AE) (HIV-1); experiment: cell-based or functional assay
[12] = biological target: HIV-1 Env of pseudovirus Ce1086_B2 (clade C, T/F) (HIV-1); experiment: cell-based or functional assay
[13] = biological target: HIV-1 Env of pseudovirus BJOX028000.10.3 (clade CRF01_AE, T/F) (HIV-1); experiment: cell-based or functional assay
[14] = biological target: HIV-1 Env of pseudovirus T250-4 (clade CRF02_AG) (HIV-1); experiment: cell-based or functional assay
[15] = biological target: MuLV Env pseudovirus (negative control) (MuLV); experiment: cell-based or functional assay
[16] = biological target: HIV-1 Env of pseudovirus Du172.17 (clade C) (HIV-1); experiment: cell-based or functional assay
[17] = biological target: HIV-1 Env of pseudovirus 6545.v4.c1 (HIV-1); experiment: cell-based or functional assay
[18] = biological target: HIV-1 Env of pseudovirus CNE20 (clade BC) (HIV-1); experiment: cell-based or functional assay
[19] = biological target: HIV-1 Env of pseudovirus 3103.v3.c10 (clade ACD) (HIV-1); experiment: cell-based or functional assay
[20] = biological target: HIV-1 Env of pseudovirus Ce1172_H1 (clade C, T/F) (HIV-1); experiment: cell-based or functional assay
[21] = biological target: HIV-1 Env of pseudovirus 62357_14_D3_4589 (clade B, T/F) (HIV-1); experiment: cell-based or functional assay
[22] = biological target: HIV-1 Env of pseudovirus PVO.4 (clade B) (HIV-1); experiment: cell-based or functional assay
[23] = biological target: HIV-1 Env of pseudovirus Q259.d2.17 (clade A) (HIV-1); experiment: cell-based or functional assay
[24] = biological target: monomeric HIV-1 Ba-L gp120 (HIV-1 Ba-L); experiment: retention on gp120 affinity column
[25] = biological target: HIV-1 93TH057 gp120 coree (HIV-1); experiment: PDB 5te6 structure, PISA interface

VRC01 Fab
Ratio of OD/ID buried surface area [1]: 9.68 | buried surface area, CDR H1 [1]: 3 Å^2 | buried surface area, CDR H2 [1]: 598 Å^2 | buried surface area, CDR L1 [1]: 50 Å^2 | buried surface area, CDR L2 [1]: 0 Å^2 | buried surface area, CDR L3 [1]: 132 Å^2 | buried surface area, CDRH3 [1]: 160 Å^2 | buried surface area, Fab heavy and light chain total [1]: 1200 Å^2 | buried surface area, Fab heavy chain total [1]: 897 Å^2 | buried surface area, Fab light chain total [1]: 306 Å^2 | buried surface area, gp120 CD4 binding loop of OD [1]: 188 Å^2 | buried surface area, gp120 Loop D of OD [1]: 322 Å^2 | buried surface area, gp120 Loop V5 of OD [1]: 301 Å^2 | buried surface area, gp120 inner domain (ID) [1]: 107 Å^2 | buried surface area, gp120 outer domain (OD) [1]: 1040 Å^2 | buried surface area, gp120 total [1]: 1140 Å^2 | buried surface area, heavy chain FWR [1]: 136 Å^2 | buried surface area, light chain FWR [1]: 124 Å^2

N49P7YTE (antibody)
IC50, titer in TZM.bl cells [2]: 0.329 µg/mL | IC80, titer in TZM.bl cells [2]: 1.06 µg/mL | MPI [2]: 100 | IC50, titer in TZM.bl cells [3]: 26.2 µg/mL | IC80, titer in TZM.bl cells [3]: > 50 µg/mL | MPI [3]: 59 | IC50, titer in TZM.bl cells [4]: 0.232 µg/mL | IC80, titer in TZM.bl cells [4]: 0.782 µg/mL | MPI [4]: 100 | IC50, titer in TZM.bl cells [5]: 1.15 µg/mL | IC80, titer in TZM.bl cells [5]: 9.65 µg/mL | MPI [5]: 89 | IC50, titer in TZM.bl cells [6]: 13.2 µg/mL | IC80, titer in TZM.bl cells [6]: > 50 µg/mL | MPI [6]: 76 | IC50, titer in TZM.bl cells [7]: 3.11 µg/mL | IC80, titer in TZM.bl cells [7]: 13.9 µg/mL | MPI [7]: 99 | IC50, titer in TZM.bl cells [8]: 39 µg/mL | IC80, titer in TZM.bl cells [8]: > 50 µg/mL | MPI [8]: 56 | IC50, titer in TZM.bl cells [9]: > 50 µg/mL | IC80, titer in TZM.bl cells [9]: > 50 µg/mL | MPI [9]: 13 | IC50, titer in TZM.bl cells [10]: > 50 µg/mL | IC80, titer in TZM.bl cells [10]: > 50 µg/mL | MPI [10]: 28 | IC50, titer in TZM.bl cells [11]: > 50 µg/mL | IC80, titer in TZM.bl cells [11]: > 50 µg/mL | MPI [11]: 0 | IC50, titer in TZM.bl cells [12]: 0.113 µg/mL | IC80, titer in TZM.bl cells [12]: 0.53 µg/mL | MPI [12]: 99 | IC50, titer in TZM.bl cells [13]: 0.018 µg/mL | IC80, titer in TZM.bl cells [13]: 0.155 µg/mL | MPI [13]: 100 | IC50, titer in TZM.bl cells [14]: > 50 µg/mL | IC80, titer in TZM.bl cells [14]: > 50 µg/mL | MPI [14]: 43 | IC50, titer in TZM.bl cells [15]: > 50 µg/mL | IC80, titer in TZM.bl cells [15]: > 50 µg/mL | MPI [15]: 4 | IC50, titer in TZM.bl cells [16]: 0.283 µg/mL | IC80, titer in TZM.bl cells [16]: 0.953 µg/mL | MPI [16]: 100 | IC50, titer in TZM.bl cells [17]: > 50 µg/mL | IC80, titer in TZM.bl cells [17]: > 50 µg/mL | MPI [17]: 45 | IC50, titer in TZM.bl cells [18]: 0.11 µg/mL | IC80, titer in TZM.bl cells [18]: 0.317 µg/mL | MPI [18]: 99 | IC50, titer in TZM.bl cells [19]: 0.322 µg/mL | IC80, titer in TZM.bl cells [19]: 0.583 µg/mL | MPI [19]: 100 | IC50, titer in TZM.bl cells [20]: > 50 µg/mL | IC80, titer in TZM.bl cells [20]: > 50 µg/mL | MPI [20]: 12 | IC50, titer in TZM.bl cells [21]: 0.039 µg/mL | IC80, titer in TZM.bl cells [21]: 0.173 µg/mL | MPI [21]: 100 | IC50, titer in TZM.bl cells [22]: 0.088 µg/mL | IC80, titer in TZM.bl cells [22]: 0.394 µg/mL | MPI [22]: 100 | IC50, titer in TZM.bl cells [23]: 5.34 µg/mL | IC80, titer in TZM.bl cells [23]: 44.1 µg/mL | MPI [23]: 82

N49P7-54TY (antibody)
IC50, titer in TZM.bl cells [2]: 0.172 µg/mL | IC80, titer in TZM.bl cells [2]: 0.572 µg/mL | MPI [2]: 100 | IC50, titer in TZM.bl cells [3]: 0.145 µg/mL | IC80, titer in TZM.bl cells [3]: 0.599 µg/mL | MPI [3]: 100 | IC50, titer in TZM.bl cells [4]: 0.131 µg/mL | IC80, titer in TZM.bl cells [4]: 0.47 µg/mL | MPI [4]: 100 | IC50, titer in TZM.bl cells [5]: 0.206 µg/mL | IC80, titer in TZM.bl cells [5]: 1.91 µg/mL | MPI [5]: 92 | IC50, titer in TZM.bl cells [6]: 0.402 µg/mL | IC80, titer in TZM.bl cells [6]: 2.02 µg/mL | MPI [6]: 96 | IC50, titer in TZM.bl cells [7]: 0.691 µg/mL | IC80, titer in TZM.bl cells [7]: 3.33 µg/mL | MPI [7]: 97 | IC50, titer in TZM.bl cells [8]: 3.04 µg/mL | IC80, titer in TZM.bl cells [8]: > 25 µg/mL | MPI [8]: 72 | IC50, titer in TZM.bl cells [9]: > 25 µg/mL | IC80, titer in TZM.bl cells [9]: > 25 µg/mL | MPI [9]: 20 | IC50, titer in TZM.bl cells [10]: > 25 µg/mL | IC80, titer in TZM.bl cells [10]: > 25 µg/mL | MPI [10]: 40 | IC50, titer in TZM.bl cells [11]: > 25 µg/mL | IC80, titer in TZM.bl cells [11]: > 25 µg/mL | MPI [11]: 0 | IC50, titer in TZM.bl cells [12]: 0.067 µg/mL | IC80, titer in TZM.bl cells [12]: 0.339 µg/mL | MPI [12]: 100 | IC50, titer in TZM.bl cells [13]: 0.009 µg/mL | IC80, titer in TZM.bl cells [13]: 0.044 µg/mL | MPI [13]: 100 | IC50, titer in TZM.bl cells [14]: 1.02 µg/mL | IC80, titer in TZM.bl cells [14]: 19.6 µg/mL | MPI [14]: 83 | IC50, titer in TZM.bl cells [15]: > 25 µg/mL | IC80, titer in TZM.bl cells [15]: > 25 µg/mL | MPI [15]: 0 | IC50, titer in TZM.bl cells [16]: 0.124 µg/mL | IC80, titer in TZM.bl cells [16]: 0.529 µg/mL | MPI [16]: 100 | IC50, titer in TZM.bl cells [17]: 3.01 µg/mL | IC80, titer in TZM.bl cells [17]: > 25 µg/mL | MPI [17]: 74 | IC50, titer in TZM.bl cells [18]: 0.046 µg/mL | IC80, titer in TZM.bl cells [18]: 0.16 µg/mL | MPI [18]: 100 | IC50, titer in TZM.bl cells [19]: 0.151 µg/mL | IC80, titer in TZM.bl cells [19]: 0.55 µg/mL | MPI [19]: 100 | IC50, titer in TZM.bl cells [20]: > 25 µg/mL | IC80, titer in TZM.bl cells [20]: > 25 µg/mL | MPI [20]: 23 | IC50, titer in TZM.bl cells [21]: 0.055 µg/mL | IC80, titer in TZM.bl cells [21]: 0.192 µg/mL | MPI [21]: 100 | IC50, titer in TZM.bl cells [22]: 0.079 µg/mL | IC80, titer in TZM.bl cells [22]: 0.314 µg/mL | MPI [22]: 100 | IC50, titer in TZM.bl cells [23]: 0.132 µg/mL | IC80, titer in TZM.bl cells [23]: 1.13 µg/mL | MPI [23]: 95

Synagis (antibody)
recovery from gp120 affinity column [24]: < 1%

N6 Fab
Ratio of OD/ID buried surface area [25]: 7.58 | buried surface area, CDR H1 [25]: 38 Å^2 | buried surface area, CDR H2 [25]: 621 Å^2 | buried surface area, CDR L1 [25]: 43 Å^2 | buried surface area, CDR L2 [25]: 0 Å^2 | buried surface area, CDR L3 [25]: 172 Å^2 | buried surface area, CDRH3 [25]: 123 Å^2 | buried surface area, Fab heavy and light chain total [25]: 1180 Å^2 | buried surface area, Fab heavy chain total [25]: 928 Å^2 | buried surface area, Fab light chain total [25]: 251 Å^2 | buried surface area, gp120 CD4 binding loop of OD [25]: 206 Å^2 | buried surface area, gp120 Loop D of OD [25]: 332 Å^2 | buried surface area, gp120 Loop V5 of OD [25]: 339 Å^2 | buried surface area, gp120 inner domain (ID) [25]: 132 Å^2 | buried surface area, gp120 outer domain (OD) [25]: 1000 Å^2 | buried surface area, gp120 total [25]: 1130 Å^2 | buried surface area, heavy chain FWR [25]: 146 Å^2 | buried surface area, light chain FWR [25]: 36 Å^2
